Here are results for one protein from patent US20210002623A1 (CENTRE NATIONAL DE LA RECHERCHE SCIENTIFIQUE, published 2021).

This data set deals with the molecule itself. Put plainly: self-assembly into a homododecamer; gel filtration and negative stain electron microscopy. For orientation: In gel filtration, larger molecules generally elute earlier.

B1: MjTET (TET aminopeptidase of Methanocaldococcus jannaschii, product of gene MJ0555) (enzyme)
chain: MSVVEYLKKLSKLHGISGREDSVREFMKKELEKYCDSVEIDNFGNLIAKRGNKGKKIMIAAHMDEIGLMVKYIDDNGFLKFTKIGGIYDPTILNQKVVVHGSKGDLIGVLGSKPPHRMKEEEKTKIIKYEDMFIDIGAESREEAIEMGVNIGTWVSFLSEVYDLGKNRLTGKAFDDRVGCAVLLEVMKRLSEEDIDCQVYAVGTVQEEVGLKGARVSAFKINPDVAIALDVTIAGDHPGIKKEDAPVDLGKGPVVGIVDASGRGLIAHPKVLDMIKAVSEKYKIDVQWEVGEGGTTDATAIHLTREGIPTGVISVPARYIHTPVEVIDKRDLEKTVELVYNCIKEVNNFF
notes: Untagged recombinant form made in E. coli; It forms a tetrahedral homododecamer; Activity assays were run with 0.1 mM CoCl2; also called MJ0555 protein; TET protein
Regarding B1, the binding result is “binds”.
